Laboratory results as given in PMC6182161 (Nucleic Acids Research, 2018).
Changes are numbered by the printed parent chain.

Key:
Flag-NAT10 GE = molecular target: T1, Flag-NAT10 GE (UniProt Q9H0A0 1-1025, G641E); experiment: pull-down
T1 sequence (looked up): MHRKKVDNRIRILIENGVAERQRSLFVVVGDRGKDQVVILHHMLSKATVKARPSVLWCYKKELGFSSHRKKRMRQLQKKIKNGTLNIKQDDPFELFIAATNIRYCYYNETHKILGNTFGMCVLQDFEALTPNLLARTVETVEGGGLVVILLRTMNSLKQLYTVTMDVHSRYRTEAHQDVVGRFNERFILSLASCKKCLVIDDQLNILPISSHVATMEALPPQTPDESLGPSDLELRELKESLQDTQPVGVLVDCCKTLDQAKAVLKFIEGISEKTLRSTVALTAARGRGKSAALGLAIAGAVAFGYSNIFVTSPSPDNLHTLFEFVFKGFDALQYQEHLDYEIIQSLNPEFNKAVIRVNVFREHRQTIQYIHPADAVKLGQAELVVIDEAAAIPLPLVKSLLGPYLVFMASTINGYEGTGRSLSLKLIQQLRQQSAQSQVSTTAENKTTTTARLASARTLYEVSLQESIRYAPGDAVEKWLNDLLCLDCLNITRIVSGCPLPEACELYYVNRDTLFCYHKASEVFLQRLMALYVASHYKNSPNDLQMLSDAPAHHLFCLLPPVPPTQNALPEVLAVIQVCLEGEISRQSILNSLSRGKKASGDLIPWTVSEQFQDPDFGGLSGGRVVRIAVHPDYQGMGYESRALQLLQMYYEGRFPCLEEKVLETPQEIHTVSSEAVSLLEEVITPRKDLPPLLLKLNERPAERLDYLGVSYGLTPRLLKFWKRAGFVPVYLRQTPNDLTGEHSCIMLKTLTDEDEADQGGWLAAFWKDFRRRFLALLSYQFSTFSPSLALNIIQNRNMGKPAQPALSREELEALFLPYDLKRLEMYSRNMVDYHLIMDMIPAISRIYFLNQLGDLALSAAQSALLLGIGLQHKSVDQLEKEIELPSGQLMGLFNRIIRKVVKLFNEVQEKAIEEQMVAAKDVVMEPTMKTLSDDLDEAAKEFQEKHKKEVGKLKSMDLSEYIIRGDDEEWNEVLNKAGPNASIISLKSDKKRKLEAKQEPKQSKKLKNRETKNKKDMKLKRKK

purified Flag-NAT10 = molecular target: T2, purified Flag-NAT10 (UniProt Q9H0A0 1-1025); experiment: pull-down
T2 sequence (looked up): T1 sequence (looked up) with E641G

B1: GST-Che-1 (natural protein, UniProt Q9NY61 1-560, looked up)
chain: MAGPQPLALQLEQLLNPRPSEADPEADPEEATAARVIDRFDEGEDGEGDFLVVGSIRKLASASLLDTDKRYCGKTTSRKAWNEDHWEQTLPGSSDEEISDEEGSGDEDSEGLGLEEYDEDDLGAAEEQECGDHRESKKSRSHSAKTPGFSVQSISDFEKFTKGMDDLGSSEEEEDEESGMEEGDDAEDSQGESEEDRAGDRNSEDDGVVMTFSSVKVSEEVEKGRAVKNQIALWDQLLEGRIKLQKALLTTNQLPQPDVFPLFKDKGGPEFSSALKNSHKALKALLRSLVGLQEELLFQYPDTRYLVDGTKPNAGSEEISSEDDELVEEKKQQRRRVPAKRKLEMEDYPSFMAKRFADFTVYRNRTLQKWHDKTKLASGKLGKGFGAFERSILTQIDHILMDKERLLRRTQTKRSVYRVLGKPEPAAQPVPESLPGEPEILPQAPANAHLKDLDEEIFDDDDFYHQLLRELIERKTSSLDPNDQVAMGRQWLAIQKLRSKIHKKVDRKASKGRKLRFHVLSKLLSFMAPIDHTTMNDDARTELYRSLFGQLHPPDEGHGD
- binding result (Flag-NAT10 GE): binds
- binding result (purified Flag-NAT10): binds

B2: GST-Che-1-N (domain or fragment, UniProt Q9NY61 1-124, looked up)
chain: MAGPQPLALQLEQLLNPRPSEADPEADPEEATAARVIDRFDEGEDGEGDFLVVGSIRKLASASLLDTDKRYCGKTTSRKAWNEDHWEQTLPGSSDEEISDEEGSGDEDSEGLGLEEYDEDDLGA
- binding result (purified Flag-NAT10): binds

B3: GST-Che-1-M (domain or fragment, UniProt Q9NY61 125-246, looked up)
chain: AEEQECGDHRESKKSRSHSAKTPGFSVQSISDFEKFTKGMDDLGSSEEEEDEESGMEEGDDAEDSQGESEEDRAGDRNSEDDGVVMTFSSVKVSEEVEKGRAVKNQIALWDQLLEGRIKLQK
- binding result (purified Flag-NAT10): binds

B4: GST-Sirt1 (enzyme, UniProt Q96EB6 1-747, looked up)
chain: MADEAALALQPGGSPSAAGADREAASSPAGEPLRKRPRRDGPGLERSPGEPGGAAPEREVPAAARGCPGAAAAALWREAEAEAAAAGGEQEAQATAAAGEGDNGPGLQGPSREPPLADNLYDEDDDDEGEEEEEAAAAAIGYRDNLLFGDEIITNGFHSCESDEEDRASHASSSDWTPRPRIGPYTFVQQHLMIGTDPRTILKDLLPETIPPPELDDMTLWQIVINILSEPPKRKKRKDINTIEDAVKLLQECKKIIVLTGAGVSVSCGIPDFRSRDGIYARLAVDFPDLPDPQAMFDIEYFRKDPRPFFKFAKEIYPGQFQPSLCHKFIALSDKEGKLLRNYTQNIDTLEQVAGIQRIIQCHGSFATASCLICKYKVDCEAVRGDIFNQVVPRCPRCPADEPLAIMKPEIVFFGENLPEQFHRAMKYDKDEVDLLIVIGSSLKVRPVALIPSSIPHEVPQILINREPLPHLHFDVELLGDCDVIINELCHRLGGEYAKLCCNPVKLSEITEKPPRTQKELAYLSELPPTPLHVSEDSSSPERTSPPDSSVIVTLLDQAAKSNDDLDVSESKGCMEEKPQEVQTSRNVESIAEQMENPDLKNVGSSTGEKNERTSVAGTVRKCWPNRVAKEQISRRLDGNQYLFLPPNRYIFHGAEVYSDSEDDVLSSSSCGSNSDSGTCQSPSLEEPMEDESEIEEFYNGLEDEPDVPERAGGAGFGTDGDDQEAINEAISVKQEVTDMNYPSNKS
- binding result (purified Flag-NAT10): binds
